Assay results reported in PMC4673829, “Chemical basis for the recognition of trimethyllysine by epigenetic reader proteins” (Nature Communications, 2015).
Ends that are not written are not given here. Me3 = trimethyllysine (Kme3)

T1: JMJD2A tudor domains
T1 sequence (O75164 whole entry, species assumed, looked up): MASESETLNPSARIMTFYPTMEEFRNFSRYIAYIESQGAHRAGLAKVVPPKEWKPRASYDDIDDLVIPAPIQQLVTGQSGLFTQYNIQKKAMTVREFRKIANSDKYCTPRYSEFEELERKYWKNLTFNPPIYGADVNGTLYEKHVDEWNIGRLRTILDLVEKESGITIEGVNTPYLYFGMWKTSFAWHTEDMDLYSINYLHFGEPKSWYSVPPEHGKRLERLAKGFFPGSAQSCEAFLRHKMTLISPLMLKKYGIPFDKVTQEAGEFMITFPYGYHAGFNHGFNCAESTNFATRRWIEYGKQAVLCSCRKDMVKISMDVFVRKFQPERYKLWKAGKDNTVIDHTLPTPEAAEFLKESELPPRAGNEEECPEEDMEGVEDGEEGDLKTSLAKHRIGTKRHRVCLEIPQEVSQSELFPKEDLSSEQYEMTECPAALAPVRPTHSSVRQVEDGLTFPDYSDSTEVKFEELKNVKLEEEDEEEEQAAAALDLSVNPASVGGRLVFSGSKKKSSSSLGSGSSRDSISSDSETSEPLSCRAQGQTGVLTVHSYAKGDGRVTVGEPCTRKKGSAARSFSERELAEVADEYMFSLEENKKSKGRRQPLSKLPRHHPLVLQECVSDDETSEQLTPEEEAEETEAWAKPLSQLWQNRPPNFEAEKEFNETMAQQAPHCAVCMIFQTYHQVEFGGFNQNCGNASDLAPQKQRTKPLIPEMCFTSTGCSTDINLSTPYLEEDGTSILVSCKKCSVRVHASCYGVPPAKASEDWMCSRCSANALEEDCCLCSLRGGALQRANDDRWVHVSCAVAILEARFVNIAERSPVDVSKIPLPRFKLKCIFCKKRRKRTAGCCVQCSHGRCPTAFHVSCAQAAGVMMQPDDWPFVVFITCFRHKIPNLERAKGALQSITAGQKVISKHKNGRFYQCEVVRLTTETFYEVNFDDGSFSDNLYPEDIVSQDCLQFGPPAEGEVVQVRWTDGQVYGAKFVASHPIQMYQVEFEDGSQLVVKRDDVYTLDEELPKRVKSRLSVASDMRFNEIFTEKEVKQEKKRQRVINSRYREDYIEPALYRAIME


Legend:
[1] = target: JARID1A PHD3 domain (for ITC); assay: ITC; H3G4 (5 mM) titrated to JARID1A (330 μM), H3G4 (3 mM) titrated to TAF3 (200 μM); 19 injections; Microcal Auto-iTC200; one set of sites model
[2] = target: JARID1A PHD3 domain (for ITC); assay: ITC; 350–600 μM H3K4me3 or H3C4me3 peptide titrated to 25–40 μM protein (JMJD2A–H3C4me3: 3 mM peptide to 200 μM JMJD2A); 19 injections; Microcal Auto-iTC200; one set of sites model; 5–7 repeats
[3] = target: T1, JMJD2A tudor domains; assay: as above
[4] = target: SGF29 tandem tudor domain (for ITC); assay: as above
Sequence of SGF29 tandem tudor domain (for ITC) (Q96ES7 whole entry, the tested form may be a part): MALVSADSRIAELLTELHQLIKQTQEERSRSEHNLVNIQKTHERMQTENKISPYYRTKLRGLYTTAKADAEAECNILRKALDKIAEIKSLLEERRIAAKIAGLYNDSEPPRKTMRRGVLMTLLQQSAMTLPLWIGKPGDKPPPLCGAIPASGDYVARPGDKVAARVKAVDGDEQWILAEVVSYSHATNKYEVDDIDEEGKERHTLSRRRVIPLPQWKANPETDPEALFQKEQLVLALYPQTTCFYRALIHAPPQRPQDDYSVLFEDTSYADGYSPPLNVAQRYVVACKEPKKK

Binder	Kd [1]	dH [1]	Kd [2]	dH [2]	Kd [3]	dH [3]	Kd [4]	dH [4]
ARTGQTARKS-OH [10-mer H3G4 histone peptide]	88 µM	-2.1 kcal/mol	–	–	–	–	–	–
ARTK(Me3)QTARKS-OH [10-mer H3K4me3 histone peptide]	–	–	0.094 µM	-11 kcal/mol	0.94 µM	-13.1 kcal/mol	1.7 µM	-7.7 kcal/mol
